Results taken from PMC7795666.
Where two headings read alike, the source gives them in different places.

Tests used:
[1] = molecular target: F-actin (chicken skeletal actin) (chicken) (UniProt P68139)
[2] = molecular target: pyrene-labeled F-actin (chicken skeletal actin) (chicken) (UniProt P68139); assay: double-mixing stopped-flow (pyrene-actin fluorescence quench); weak-to-strong transition, single turnover: 2 µM myosin mixed with sub-equimolar ATP (1.8 µM), aged 3 s, then mixed with 20 µM pyrene-actin; double exponential fits; 20 °C
[3] = molecular target: pyrene-labeled F-actin (chicken skeletal actin) (chicken) (UniProt P68139); assay: as above; remark: listed apart in the source
[4] = molecular target: pyrene-labeled F-actin (chicken skeletal actin) (chicken) (UniProt P68139); assay: stopped-flow (pyrene-actin fluorescence amplitude); multiple turnover: 2 µM myosin and 15 µM pyrene-actin mixed with 20 µM ATP; signal normalised to 100% of myosin bound to actin without nucleotide; fraction strongly bound from the change in total amplitude
[5] = molecular target: pyrene-labeled F-actin (chicken skeletal actin) (chicken) (UniProt P68139); assay: as above; remark: listed apart in the source
[6] = molecular target: pyrene-labeled F-actin (chicken skeletal actin) (chicken) (UniProt P68139); assay: stopped-flow transient kinetics (pyrene-actin fluorescence); no nucleotide; k'+A from linear fits of kobs; k'-A from mixing 1 µM pyrene-actomyosin complex with excess unlabeled F-actin; 1/K'A calculated as k'-A/k'+A; 20 °C, 20 mM MOPS, 100 mM KCl, 5 mM MgCl2, 1 mM DTT, pH 7.0
[7] = molecular target: pyrene-labeled F-actin (chicken skeletal actin) (chicken) (UniProt P68139); assay: stopped-flow transient kinetics (pyrene-actin fluorescence); with ADP (ADP-myosin); k'+DA from linear dependence of kobs on pyrene-actin concentration; k'-DA from 1 µM pyrA.M pre-incubated with excess ADP mixed with excess unlabeled F-actin; 1/K'DA calculated as k'-DA/k'+DA; 20 °C, 20 mM MOPS, 100 mM KCl, 5 mM MgCl2, 1 mM DTT, pH 7.0
[8] = molecular target: F-actin (chicken skeletal actin) (chicken) (UniProt P68139); assay: double-mixing stopped-flow, actin-activated Pi release (MDCC-PBP fluorescence); M.D.Pi state; multiple turnover: 2 µM myosin mixed with 200 µM ATP, aged 0.1 s, then mixed with increasing F-actin in excess ADP, 5 µM MDCC-PBP; hyperbolic fit kobs = k'+4[actin]/(1/K'DPA+[actin]); 20 °C, 20 mM MOPS, 100 mM KCl, 5 mM MgCl2, 1 mM DTT, pH 7.0

Kapp of the actin-activated steady-state ATPase (F-actin concentration at kcat/2), NADH-coupled assay [1] | kcat/Kapp (catalytic efficiency) of the actin-activated steady-state ATPase [1] | k'weak-strong (observed rate of the weak-to-strong actin-binding transition) [2] | k'weak-strong (observed rate of the weak-to-strong actin-binding transition) [3] | percent strongly actin-bound with ATP (experimental duty ratio) [4] | percent strongly actin-bound with ATP (experimental duty ratio) [5] | Kd [6] | koff [6] | kon [6] | Kd [7] | koff [7] | kon [7] | Kd [8] | k'+4K'DPA (second order rate constant of M.D.Pi binding to actin) [8] | Substance
54 µM | 140000 M⁻¹ s⁻¹ | 2.6 s⁻¹ | 2.3 s⁻¹ | 35% | 45% | 11 nM | 0.005 s⁻¹ | 610000 M⁻¹ s⁻¹ | 24 nM | 0.005 s⁻¹ | 180000 M⁻¹ s⁻¹ | 18000 nM | 790000 M⁻¹ s⁻¹ | M765^GGG-2R, D. discoideum myosin-2 motor domain (amino acids 1-765) with the two W-loop threonines replaced by three glycines, fused to two alpha-actinin repeats (from UniProt P08799 1-765) (domain or fragment)
> 100 µM | < 30000 M⁻¹ s⁻¹ | 1 s⁻¹ |  |  |  | 5.7 nM | 0.003 s⁻¹ | 640000 M⁻¹ s⁻¹ | 63 nM | 0.006 s⁻¹ | 120000 M⁻¹ s⁻¹ | 94000 nM | 40000 M⁻¹ s⁻¹ | M765^wt-2R, D. discoideum myosin-2 motor domain (amino acids 1-765) fused to an artificial lever of two alpha-actinin repeats (from UniProt P08799 1-765) (domain or fragment)
> 100 µM | < 30000 M⁻¹ s⁻¹ |  |  |  |  | 10 nM | 0.004 s⁻¹ | 610000 M⁻¹ s⁻¹ |  |  |  |  |  | M765^AA-2R, D. discoideum myosin-2 motor domain (amino acids 1-765) with T647A, T648A fused to two alpha-actinin repeats (from UniProt P08799 1-765) (domain or fragment)
